Test results: the supplement of paper PMC7877785
± gives the uncertainty stated by the source.

Assay: self-splicing fitness, log relative to wild type (ln ratio); higher = more splicing; Tetrahymena group I intron in knt gene, E. coli kanamycin selection, DiMSum; sequences stand for … in CUCUCU…GGAGGGAAAAGUUAUCAGGCAUGCACCUGGUAGCUAGUCUUUAAACCAAUAGAUUGCAUCGGUUUAAAAGGCAAGACCGUCAAAUUGCGGGAAAGGGGUCAACAGCCGUUCAGUACCAAGUCUCAGGGGAAACUUUGAGAUGGCCUUGCAAAGGGUAUGGUAAUAAGCUGACGGACAUGGUCCUAACCACGCAGCCAAGUCCUAAGUCAACAGAUCUUCUGUUGAUAUGGAUGCAGUUCACAGACUAAAUGUCGGUCGGGGAAGAUGUAUUCUUCUCAUAAGAUAUAGUCGGACCUCUCCUUAAUGGGAGCUAGCGGAUGAAGUGAUGCAACACUGGAGCCGCUGGGAACUAAUUUGUAUGCGAAAGUAUAUUGAUUAGUUUUGGAGUACUCGUGGUCG
Method in brief: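 Fitness was computed with DiMSum as the error-weighted combination of replicate fold changes, kanamycin versus none, each normalised to wild type. The library randomised all eight intron nucleotides of the P1ex region, with the intron placed in the knt kanamycin-resistance gene on pET-22b(+) in E. coli BL21(DE3). Six replicate transformations were grown overnight at 37°C or 30°C on LB agar with or without 25 μg/mL kanamycin, plus 100 μg/mL carbenicillin, 50 μM IPTG and 0.2% rhamnose. Pooled colonies were amplicon-sequenced on an Illumina HiSeq 2500.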

| Sequence | self-splicing fitness (ln) (30 °C) | self-splicing fitness (ln) (37 °C) |
| --- | --- | --- |
| AGGCAGCAAUAUUACGCUAU | -1.45 ± 0.088 | -0.464 ± 0.092 |
| AGGCAGCAAUAUUACGCUCA | -0.172 ± 0.079 | 0.0289 ± 0.12 |
| AGGCAGCAAUAUUACGCUCC | -3.69 ± 0.4 | -2.01 ± 0.33 |
| AGGCAGCAAUAUUACGGCGC | -1.13 ± 0.11 | 0.292 ± 0.18 |
| AGGCAGCAAUAUUACGGCUU | -2.17 ± 0.12 | -1.83 ± 0.16 |
| AGGCAGCAAUAUUACGGGAA | -3.59 ± 0.23 | -2.42 ± 0.18 |
| AGGCAGCAAUAUUACGGGUC | -2.67 ± 0.17 | -3.01 ± 0.22 |
| AGGCAGCAAUAUUACGGUAA | -2.35 ± 0.088 | -1.75 ± 0.076 |
| AGGCAGCAAUAUUACGUCGA | -0.305 ± 0.043 | -0.0427 ± 0.055 |
| AGGCAGCAAUAUUACGUGAU | -2.2 ± 0.14 | -0.983 ± 0.13 |
| AGGCAGCAAUAUUACGUGGU | -3.88 ± 0.14 | -1.54 ± 0.1 |
| AGGCAGCAAUAUUACGUUAA | -2.6 ± 0.15 | -1.88 ± 0.13 |
| AGGGAGCAAUAUUACGAAAG | -1.91 ± 0.14 | -2.14 ± 0.24 |
| AGGGAGCAAUAUUACGACUA | -2.2 ± 0.5 | -1.98 ± 0.32 |
| AGGGAGCAAUAUUACGAGAC | -3.09 ± 0.4 | -2.77 ± 0.36 |
| AGGGAGCAAUAUUACGAUGC | – | -2.65 ± 0.41 |
| AGGGAGCAAUAUUACGCCGA | -2.38 ± 0.25 | – |
| AGGGAGCAAUAUUACGCUGG | -4.26 ± 0.37 | -1.67 ± 0.26 |
| AGGGAGCAAUAUUACGGCGC | -2.78 ± 0.5 | -1.23 ± 0.35 |
| AGGGAGCAAUAUUACGGCUU | -3.29 ± 0.25 | -1.11 ± 0.35 |
| AGGGAGCAAUAUUACGGGAA | -1.37 ± 0.38 | -2.58 ± 0.37 |
| AGGGAGCAAUAUUACGGGGA | -3.29 ± 0.34 | -2.64 ± 0.48 |
| AGGGAGCAAUAUUACGUAAG | -3.17 ± 0.2 | -2.28 ± 0.3 |
| AGGGAGCAAUAUUACGUAUG | -2.98 ± 0.3 | -2.37 ± 0.49 |
| AGGGAGCAAUAUUACGUCAC | -2.07 ± 0.24 | -2.69 ± 0.26 |

| Sequence | self-splicing fitness (ln) (30 °C) | self-splicing fitness (ln) (37 °C) |
| --- | --- | --- |
| AGGGAGCAAUAUUACGUGGG | -3.31 ± 0.2 | – |
| AGGGAGCAAUAUUACGUUUA | -2.68 ± 0.33 | -2.33 ± 0.31 |
| AGGGAGCAAUAUUACGUUUC | – | -2.44 ± 0.24 |
| AGGUAGCAAUAUUACGAAGG | -3.908 ± 0.034 | -2.86 ± 0.046 |
| AGGUAGCAAUAUUACGAAGU | -3.22 ± 0.026 | -1.56 ± 0.037 |
| AGGUAGCAAUAUUACGACAU | 0 ± 0.009 | – |
| AGGUAGCAAUAUUACGAGAU | -3.178 ± 0.023 | -1.91 ± 0.036 |
| AGGUAGCAAUAUUACGAGCA | -1.33 ± 0.019 | -0.51 ± 0.034 |
| AGGUAGCAAUAUUACGGAAC | -3.629 ± 0.035 | -2.2 ± 0.042 |
| AGGUAGCAAUAUUACGGAAU | -2.678 ± 0.019 | -1.29 ± 0.035 |
| AGGUAGCAAUAUUACGGACA | -0.694 ± 0.017 | -0.397 ± 0.034 |
| AGGUAGCAAUAUUACGGAUU | -1.553 ± 0.014 | -0.618 ± 0.033 |
| AGGUAGCAAUAUUACGGUAC | -3.522 ± 0.032 | -2.07 ± 0.04 |
| AGGUAGCAAUAUUACGUAGA | -3.995 ± 0.028 | -2.07 ± 0.036 |
| AGGUAGCAAUAUUACGUAGG | -3.667 ± 0.026 | -2.71 ± 0.039 |
| AGGUAGCAAUAUUACGUCUA | -0.666 ± 0.015 | -0.259 ± 0.033 |
| AGUAAGCAAUAUUACGAACC | -1.74 ± 0.21 | 1.04 ± 0.23 |
| AGUAAGCAAUAUUACGAAGA | -2.88 ± 0.28 | -2.82 ± 0.35 |
| AGUAAGCAAUAUUACGACCG | -1.03 ± 0.17 | -0.428 ± 0.2 |
| AGUAAGCAAUAUUACGACGG | -3.42 ± 0.27 | -1.94 ± 0.2 |
| AGUAAGCAAUAUUACGAGCU | -2.23 ± 0.14 | -1.98 ± 0.13 |
| AGUAAGCAAUAUUACGCAGC | -3.52 ± 0.32 | -1.8 ± 0.3 |
| AGUAAGCAAUAUUACGCCAA | -3.35 ± 0.29 | -2.6 ± 0.24 |
| AGUAAGCAAUAUUACGCCAU | -2.81 ± 0.2 | -1.93 ± 0.22 |
| AGUAAGCAAUAUUACGCCCA | -1.19 ± 0.37 | – |

| Sequence | self-splicing fitness (ln) (30 °C) | self-splicing fitness (ln) (37 °C) |
| --- | --- | --- |
| AGUAAGCAAUAUUACGCCUU | -1.74 ± 0.12 | -0.241 ± 0.14 |
| AGUAAGCAAUAUUACGCGGC | – | -3.37 ± 0.42 |
| AGUAAGCAAUAUUACGCUAU | -4.08 ± 0.32 | -1.41 ± 0.13 |
| AGUAAGCAAUAUUACGCUGA | -1.98 ± 0.33 | -2.29 ± 0.31 |
| AGUAAGCAAUAUUACGGACU | -1.57 ± 0.15 | 0.25 ± 0.17 |
| AGUAAGCAAUAUUACGGAGG | -2.9 ± 0.28 | -2.29 ± 0.26 |
| AGUAAGCAAUAUUACGGCGU | -0.683 ± 0.073 | 0.246 ± 0.095 |
| AGUAAGCAAUAUUACGGUAC | -2.95 ± 0.24 | -2.27 ± 0.31 |
| AGUAAGCAAUAUUACGGUGU | -2.92 ± 0.14 | -2.44 ± 0.16 |
| AGUAAGCAAUAUUACGGUUA | -0.833 ± 0.11 | -0.477 ± 0.092 |
| AGUAAGCAAUAUUACGGUUC | -2.9 ± 0.19 | -1.55 ± 0.44 |
| AGUAAGCAAUAUUACGGUUG | -3.09 ± 0.23 | -2.51 ± 0.25 |
| AGUAAGCAAUAUUACGUAAA | -3.2 ± 0.34 | -1.75 ± 0.21 |
| AGUAAGCAAUAUUACGUAAC | -2.48 ± 0.23 | – |
| AGUAAGCAAUAUUACGUACA | -0.932 ± 0.1 | 0.0596 ± 0.13 |
| AGUAAGCAAUAUUACGUACU | -2.29 ± 0.12 | -1.76 ± 0.18 |
| AGUAAGCAAUAUUACGUGAG | -3.88 ± 0.15 | -1.07 ± 0.11 |
| AGUCAGCAAUAUUACGAAGU | -1.48 ± 0.084 | -0.0211 ± 0.096 |
| AGUCAGCAAUAUUACGACAG | -0.781 ± 0.12 | -0.399 ± 0.14 |
| AGUCAGCAAUAUUACGACCC | -0.401 ± 0.19 | -0.72 ± 0.29 |
| AGUCAGCAAUAUUACGAGGU | -3.4 ± 0.26 | -2.62 ± 0.24 |
| AGUCAGCAAUAUUACGAUAU | -0.289 ± 0.096 | 0.475 ± 0.11 |
| AGUCAGCAAUAUUACGAUUA | 0.011 ± 0.11 | -0.381 ± 0.15 |
| AGUCAGCAAUAUUACGCAUU | -0.401 ± 0.069 | -0.421 ± 0.085 |
| AGUCAGCAAUAUUACGCCUA | -0.754 ± 0.12 | 0.18 ± 0.15 |

| Sequence | self-splicing fitness (ln) (30 °C) | self-splicing fitness (ln) (37 °C) |
| --- | --- | --- |
| AGUCAGCAAUAUUACGCGGU | -2.25 ± 0.15 | -1.45 ± 0.11 |
| AGUCAGCAAUAUUACGCUCC | -0.39 ± 0.17 | -0.919 ± 0.16 |
| AGUCAGCAAUAUUACGGCAU | 0.126 ± 0.066 | -0.106 ± 0.074 |
| AGUCAGCAAUAUUACGGCGU | 0.0847 ± 0.073 | 0.74 ± 0.096 |
| AGUCAGCAAUAUUACGGUCC | -0.805 ± 0.096 | 0.201 ± 0.13 |
| AGUCAGCAAUAUUACGUACC | -0.711 ± 0.15 | 0.605 ± 0.21 |
| AGUCAGCAAUAUUACGUACU | -1.92 ± 0.13 | -0.881 ± 0.13 |
| AGUCAGCAAUAUUACGUGCC | -1.02 ± 0.077 | 0.0632 ± 0.095 |
| AGUCAGCAAUAUUACGUGGA | -2.73 ± 0.19 | -2.41 ± 0.15 |
| AGUGAGCAAUAUUACGAACC | -0.739 ± 0.16 | -0.869 ± 0.24 |
| AGUGAGCAAUAUUACGACUC | -3.04 ± 0.37 | – |
| AGUGAGCAAUAUUACGAGAC | – | -2.17 ± 0.24 |
| AGUGAGCAAUAUUACGAUAG | -2.34 ± 0.17 | -2.18 ± 0.34 |
| AGUGAGCAAUAUUACGCUAC | -2.96 ± 0.16 | -2.3 ± 0.23 |
| AGUGAGCAAUAUUACGGAGC | -1.89 ± 0.18 | -3.36 ± 0.33 |
| AGUGAGCAAUAUUACGGAGG | -3.77 ± 0.28 | -2.67 ± 0.27 |
| AGUGAGCAAUAUUACGGCCG | -3.46 ± 0.29 | -1.59 ± 0.24 |
| AGUGAGCAAUAUUACGGCUC | -4.11 ± 0.26 | -2.03 ± 0.2 |
| AGUGAGCAAUAUUACGGGGU | -4.06 ± 0.25 | -2.67 ± 0.21 |
| AGUGAGCAAUAUUACGGGUU | -2.39 ± 0.26 | -2.35 ± 0.33 |
| AGUGAGCAAUAUUACGGUCG | -3.55 ± 0.24 | -1.97 ± 0.18 |
| AGUGAGCAAUAUUACGGUGA | -3.03 ± 0.31 | -2.96 ± 0.3 |
| AGUGAGCAAUAUUACGGUGG | -3.06 ± 0.19 | -2.69 ± 0.3 |
